From patent US12472227B2, “Pharmaceutical compositions and use thereof for relieving resistance due to cancer chemotherapy and enhancing effect of cancer chemotherapy” (Rise Biopharmaceuticals Inc., priority 2015, dated 2025) come the findings set out here.

The IC50 is the concentration that gives 50% inhibition.

“Also recorded” adds a separate entry of the source. Like-named read-outs stand apart in the source and are kept apart here.

The subject of one data set is MIAPaCa2GR cells. Description: MTT cytotoxicity of Gemcitabine, Gemcitabine-resistant MIAPaCa2GR. The format is cell-based. Conditions: Homo sapiens. As for the experimental part:
(§1) Human pancreatic cancer (PDAC) cell lines, BxPC3 and MIAPaCa2 were used in the present invention. Gemcitabine resistant BxPC3 cell line (BxPC3GR) was generated as a chemoresistant cell line against gemcitabine by culturing BxPC3 cells in media containing increasing concentrations of gemcitabine and then maintained them at 0.5 μM gemcitabine. Gemcitabine resistant MIAPaCa2 cell line (MIAPaCa2GR) was generated by culturing MIAPaCa2 cells in media containing increasing concentrations of gemcitabine and then maintained them at 0.12 μM gemcitabine. […] MIAPaCa2 and MIAPaCa2GR are maintained in DMEM with 10% FBS, 1% penicillin-streptomycin, and 1% L-Glutamine.
To validate the establishment of Gemcitabine-resistant pancreatic ductal adenocarcinoma (PDAC) cell lines, MTT of Gemcitabine gradient was implemented with parental cells and Gemcitabine-resistant (GR) cells. […]

The test system of a further data set is BxPC-3GR cells. Put plainly: MTT cytotoxicity of Gemcitabine, Gemcitabine-resistant BxPC-3GR. The format is cell-based. Conditions: Homo sapiens. The method, then:
as §1
(§2) To validate the establishment of Gemcitabine-resistant pancreatic ductal adenocarcinoma (PDAC) cell lines, MTT of Gemcitabine gradient was implemented with parental cells and Gemcitabine-resistant (GR) cells.
(§3) BxPC-3 and BxPC-3GR treated with gemcitabine from 0 nM to 100 nM, and measured by MTT (FIG. 3a). Similarly, MIAPaCa2 and MIAPaCa2GR also treated with gemcitabine from 0 nM to 100 nM, and measured by MTT (FIG. 3b).

For a further data set, the system named is BxPC-3 cells. Description: MTT cytotoxicity of Gemcitabine, parental BxPC-3. The format is cell-based. Conditions: Homo sapiens, BxPC-3 parental cells. The method, then:
as §1, §2, §3

In data set [1] the test system is BxPC-3GR. Put plainly: Cell proliferation assay (CCK-8), BxPC-3GR. The format is cell-based, Human. Conditions: Gemcitabine 100 nM, ONCO P-8 400 ng/mL (47 nM), IL-8 200 ng/mL, 24 hours. As for the experimental part:
The Gemcitabine-resistant cancer cells treated by Gemcitabine (100 nM) with ONCO P-8 (400 ng/mL, 47 nM), or treated by Gemcitabine with ONCO P-8 and IL-8 (200 ng/mL, 23.8 nM) for 24 hours.

The subject of another data set is MIAPaCa2 cells. Description: MTT cytotoxicity of Gemcitabine, parental MIAPaCa2. The data set is classed as cell-based. Conditions: Homo sapiens, MIA PaCa-2. The method, then: as §1, §2, §3
Data set [2] deals with BxPC-3GR. Put plainly: Transwell invasion assay, BxPC-3GR. The data set is classed as cell-based, Human. Conditions: Gemcitabine 100 nM; for invasion rate: ONCO P-8 400 ng/mL or IL-8 200 ng/mL, versus control. The method, then:
(§4) The invasion ability of cell was performed by using 8 μm pore size transwell (Corning Fluor® Blok™). The transwell insert was coated with 60 μl matrigel (300 μg/ml in serum-free medium, BD Bioscience) overnight at 37° C. in 5% CO2 atmosphere. 2.5×10^4 cells in 0.2 mL of serum-free growth medium were seeded into the upper chamber coated with matrigel and then treated with IL-8 (200 ng/ml) with/without ONCO P-8 (400 ng/ml). After incubation for 24 hrs at 37° C. in 5% CO2, membrane of upper chamber was fixed with methanol and stained with propidium iodide (PI). The invasive cells in the bottom of membrane were imaged and counted by using an inverted fluorescence microscope (Observer.Z1, Zeiss) in five random fields of each specimen (magnification, ×100).
(§5) The Gemcitabine-resistant cancer cells treated by Gemcitabine (100 nM) with ONCO P-8 (400 ng/mL), or treated by Gemcitabine with ONCO P-8 and IL-8 (200 ng/mL), or treated by Gemcitabine with IL-8 respectively for invasion ability assay.
(§6) The drug concentration: ONCO P-8 (400 ng/ml), Reparixin (200 nM), IL-8 (200 ng/ml), statistical significance: *P<0.05, **P<0.01,***P<0.001.

Data set [3] concerns gemcitabine-resistant cell (BxPC-3GR). Put plainly: Migration of Gemcitabine-resistant cancer cells. The format is cell-based, Human. Conditions: ONCO P-8 400 ng/ml, IL-8 200 ng/ml. The method, then: as §6
The test system of a further data set is BxPC-3 cell line. Put plainly: Transwell matrigel invasion assay, BxPC-3. The data set is classed as cell-based, Human. Conditions: 24 hrs; for invasive rate: ONCO P-8 400 ng/ml or IL-8 200 ng/ml alone. As for the experimental part: as §4
For the next data set, the system named is BxPC-3. Description: Colony formation assay, BxPC-3. The data set is classed as cell-based, Human. Conditions: IL-8 200 ng/ml, ONCO P-8 400 ng/ml, 2 weeks. The method, then:
Cells were Seeded in a 24-Well Plate at a Density of 1000 Cells Per well, treatment were executed 24 hr after seeding. The treatment included that the cells were treated with IL-8 (200 ng/ml), IL-8 (200 ng/ml) plus ONCO P-8 (400 ng/ml), or ONCO P-8 (400 ng/ml). After 2 weeks, the medium was removed and cells were washed with PBS and stained for 30 min in 0.1% w/v crystal violet (dissolved in methanol; 32675, Fluka® Analytical, USA). Area of colonies were identified by camera and analyzed by ImageJ analysis software. The results were calculated as follows: Colony formation rate (%)=(Treatment area of the colony/Control area of the colony)×100%

Data set [4] deals with CSC markers (NANOG, OCT4, SOX2, ALDHA1, BMI-1, KLF4, Nestin) in BxPC3GR-derived spheroids. Description: RT-PCR of CSC markers in BxPC3GR-derived spheroids. The data set is classed as cell-based, Human. Conditions: ONCO P-8 400 ng/ml (47 nM), Gemcitabine 100 nM. As for the experimental part:
FIG. 12A-12G illustrate RT-PCR analysis was performed to determine the effect of ONCO P-8 treatment on the expression levels of NANOG (FIG. 12A), OCT4 (FIG. 12B), SOX2 (FIG. 12C), ALDHA1 (FIG. 12D), BMI-1 (FIG. 12E), KLF4 (FIG. 12F) and Nestin (FIG. 12G) in BxPC3GR-derived spheroids with Gemcitabine. Drug resistance related CSC marker: NANOG, OCT4, SOX2. Cell invasion related CSC marker: ALDHA1, BMI-1. Tumor growth related CSC marker: KLF4, Nestin.
All real-time PCR reactions were performed with specific primers and taqman probes or probes from the Universal Probe Library (Roche Applied Science) in the StepOneTMReal-Time PCR system (Applied Biosystems™). 18 s was used as an internal loading control. The reactions were performed as follows: denaturation for 2 min at 50° C. and 10 min at 95° C., 50 cycles of 95° C. for 15 sec, and 60° C. for 1 min. […] Sequences of all primers used are listed below (F: Forward primer; R: Reverse primer): […]

Another data set deals with T1, CXCR2 (Homo sapiens, UniProt P25025).
T1 sequence (P25025 1-360): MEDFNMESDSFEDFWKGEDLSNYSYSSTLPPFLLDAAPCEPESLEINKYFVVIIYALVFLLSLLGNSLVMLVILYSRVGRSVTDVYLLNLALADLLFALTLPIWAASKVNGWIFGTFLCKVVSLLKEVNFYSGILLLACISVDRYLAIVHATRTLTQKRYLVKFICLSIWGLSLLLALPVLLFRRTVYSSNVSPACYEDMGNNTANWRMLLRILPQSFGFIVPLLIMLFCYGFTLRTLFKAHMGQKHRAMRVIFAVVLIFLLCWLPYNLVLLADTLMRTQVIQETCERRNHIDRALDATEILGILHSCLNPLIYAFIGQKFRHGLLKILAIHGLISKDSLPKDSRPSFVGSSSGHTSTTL
Description: Indirect ELISA binding assay, CXCR2 complex formation. Conditions: versus IL-8. From the text: (§7) The Kd Equation include: (1) i=A450nm/A^max450 nm, then i=Ligand/Ligand^max; (2) 1/(1−i)=(Ligtot/i)/Kd−b, b=fqSrec/Kd.

The next data set concerns BxPC-3 xenograft tumor. The data set is classed as in vivo, BALB/c nude mice. The method, then:
The PDAC xenograft tumor model treated by ONCO P-8, or treated by Gemcitabine with ONCO P-8, or treated by Gemcitabine, or treated by Gemcitabine, or treated PBS respectively. Gemcitabine administrations were about 100 mg/kg subject weight twice per week. ONCO P-8 administrations were about 500 μg/kg subject weight three times per week. […] The survival rate of xenograft model treated by ONCO P-8 or treated by Gemcitabine with ONCO P-8 is about 100%.
To evaluate the effect of ONCO P-8 in vivo, it was used the BxPC-3 model in 4-week old male BALB/c nude mice in the present invention. Mice were inoculated BxPC-3 cells subcutaneously. After 7 days, mice were treated with PBS or ONCO P-8 (500 μg/kg) by i.p injection three times a week. The initiation tumor size was 128.5±47.8 mm^3 in first treatment.

The next data set concerns the target T2, CXCR1 (Homo sapiens, UniProt P25024).
T2 sequence (P25024 1-350): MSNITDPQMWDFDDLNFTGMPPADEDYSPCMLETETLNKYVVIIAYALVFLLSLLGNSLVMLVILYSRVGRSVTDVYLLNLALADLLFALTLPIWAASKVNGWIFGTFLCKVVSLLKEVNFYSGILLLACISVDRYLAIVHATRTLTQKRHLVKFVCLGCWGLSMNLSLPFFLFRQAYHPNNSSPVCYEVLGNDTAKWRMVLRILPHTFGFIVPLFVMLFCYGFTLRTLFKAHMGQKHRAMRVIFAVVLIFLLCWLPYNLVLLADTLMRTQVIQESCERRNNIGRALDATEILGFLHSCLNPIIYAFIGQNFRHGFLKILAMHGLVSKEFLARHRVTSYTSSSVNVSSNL
Description: Indirect ELISA binding assay, CXCR1 complex formation. Conditions: versus IL-8.
Excerpt: as §7

A further data set concerns MIAPaCa2GR. Description: Transwell invasion assay, MIAPaCa2GR. The format is cell-based, Human. Conditions: Gemcitabine 100 nM. The method, then:
as §4, §5

Where [5] appears, read: IL-8 200 ng/mL + ONCO P-8 400 ng/mL versus IL-8 group.

Turning to `Nc1ccn([C@@H]2O[C@H](CO)[C@@H](O)C2(F)F)c(=O)n1` [Gemcitabine], the IC50 in the data set on MIAPaCa2GR cells was 8620 nM; in the data set with BxPC-3GR cells (BxPC-3GR cells, read-out: IC50-value in BxPC-3GR cells) it was 236 nM; in the data set on BxPC-3GR cells (BxPC-3GR resistant cells, read-out: IC50 (nM) Resistant cells), 236 nM; in the data set on BxPC-3 cells, 6.13 nM; in the data set on MIAPaCa2 cells, 251 nM. For the same molecule, in the data set on BxPC-3GR [1], the proliferation rate result is on record as “enhanced”.

Consider “IL-8: ELR-CXC chemokine CXCL8 (IL-8), ligand of CXCR1 and CXCR2 [reference compound]”, for which, in the data set on BxPC-3GR [2], the invasion rate result was “can enhance”. Also, the migration rate entry in [3] is recorded as “can enhance the cell migration”. Besides, in the data set on BxPC-3 cell line, the invasive rate result is recorded as “can enhance the cell invasion”.

B1: ONCO P-8: chemokine receptor antagonistic modified peptide (SEQ ID NO: 1), analogous protein of CXCL8 (IL-8), antagonist of CXCR1 and CXCR2 (protein)
chain: GSKELRCQCIRSYSKPFHPKFIKELRVIPASQFCANTEIIVKLSDGRELCLDPKENWVQRVVEKFLKRAENS
modifications: ONCO P-8
For B1, the colony formation rate result with BxPC-3 is given as “can neutralize the effect of CXCL8 to reduce the colony formation rate”. Besides, the “expression of CSC properties markers” value in data set [4] is “can reduce the expression of these CSC properties markers”. For the same molecule, the “bind to CXCR2 tighter than IL-8” value in the data set with CXCR2 is 3-4 fold. Moreover, the figures for the “invasion rate in presence of IL-8” value with BxPC-3GR [2] (setting [5]) and with MIAPaCa2GR (setting [5]) were “can prevent significantly invasion rate; also recorded: can neutralize the effect of CXCL8 to reduce the invasive rate” and “can prevent significantly invasion rate”, respectively. Also, the invasion rate result is “decreases invasion rate; also recorded: can reduce; also recorded: can inhibit the invasion ability; also recorded: can attenuate” with BxPC-3GR [2] and “decreases invasion rate; also recorded: can inhibit the invasion ability” in the data set with MIAPaCa2GR (ONCO P-8 400 ng/mL, versus control). The migration rate entry in [3] was “can reduce the migration rate; also recorded: can attenuate”. In addition, in the data set on BxPC-3 xenograft tumor (BxPC-3 xenograft), the “survival rate / lifespan” value was “improve the survival rate”. In the data set with BxPC-3 xenograft tumor (BxPC-3 xenograft, FIG. 13C), the survival rate entry is “about 100%”. The “tumor growth (tumor size)” value in the data set on BxPC-3 xenograft tumor (BxPC-3 xenograft, ONCO P-8 500 μg/kg i.p. three times a week, Gemcitabine 100 mg/kg twice per week) is on record as “significantly inhibited the tumor growth”. Further, in the data set with BxPC-3 xenograft tumor (mouse, in vivo, ip), the “body weight of mice” value is reported as “didn't lead to reduce the body weight”. In addition, the “bind to CXCR1 tighter than IL-8” value in the data set with CXCR1 is listed as 3-4 fold. Besides, the proliferation rate result in the data set with BxPC-3GR [1] is “significantly attenuated; also recorded: inhibited”. Moreover, in the data set with BxPC-3 cell line (IL-8 200 ng/ml with ONCO P-8 400 ng/ml), the “invasive rate in presence of CXCL8” value is “can neutralize the effect of CXCL8 to reduce the invasive rate”. Besides, the invasive rate result in the data set on BxPC-3 cell line is listed as “can reduce the invasive rate”.
